Results reported in US8809529B2, “Imidazo[1,2-α]pyrazine derivatives” (Promega Corporation, priority 2010, dated 2014).
Numbering of substitutions follows the chain as printed. In names and notes the source's numbering stands. Where two headings read alike, the source gives them in different places.

Experiments:
caspase-3 [1] = experiment: Caspase-3 bioluminescent assay with L27V and PBI-3741; assay type: biochemical; conditions: luminescence, 3 hrs at room temperature
Protocol: (§1) 2. The L27V variant was used in a bioluminescent assay using a pro-coelenterazine substrate comprising the DEVD caspase-3 cleavage sequence “DEVD” disclosed as SEQ ID NO: 581). Purified caspase-3 enzyme (1 mg/mL) in 100 mM MES pH 6 (50 μL) was mixed with 227 nM L27V02 variant and 47 μM PBI-3741 (z-DEVD-coelenterazine-h (“DEVD” disclosed as SEQ ID NO: 581)) in assay buffer (50 μL). Reactions were incubated for 3 hrs at room temperature, and luminescence detected as previously described. The assay with the L27V variant was compared to a firefly luciferase version of the assay, CASPASE-GLO® 3/7-Assay system (Caspase-Glo; Promega Corp.).

caspase-3 [2] = biological target: T1, caspase-3 (Homo sapiens, UniProt P42574); experiment: as above; assay type: biochemical; conditions: luminescence, 3 hrs at room temperature
T1 sequence (P42574 29-175 limits assumed): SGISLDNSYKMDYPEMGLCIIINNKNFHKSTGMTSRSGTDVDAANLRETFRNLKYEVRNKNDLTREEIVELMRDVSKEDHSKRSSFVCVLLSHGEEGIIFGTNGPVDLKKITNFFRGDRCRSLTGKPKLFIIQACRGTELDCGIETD
T1 sequence (P42574 176-277 limits assumed): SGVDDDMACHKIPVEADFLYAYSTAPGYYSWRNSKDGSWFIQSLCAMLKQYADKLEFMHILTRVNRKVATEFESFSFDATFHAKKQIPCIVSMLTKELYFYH
Protocol: as §1

[3] = Km of L27V reversion variants for native coelenterazine; assay type: biochemical
Protocol: Relative activities <1 indicate the reversion is detrimental compared to the residue at that site in the L27V variant. Relative activities >1 indicate the reversion is favorable for activity compared to the residue at that site in the L27V variant. Some additional data on these mutants indicated the following: 166K, 54F, 54A and L27V were tested for thermal stability. The T1/2 60° C. for 166K, 54F, and 54A were 87, 74, and 33%, respectively, indicating these substitutions cause a reduction in thermal stability. […] This indicates higher substrate affinity for L27V, particularly for the position 54 substitutions.

[4] = test system: cAMP-response element (CRE); experiment: cAMP transcriptional reporter in HEK293 cells (Example 36); conditions: for fold-induction: FSK 5 hrs
CRE = CRE transcriptional reporter, bulk transfection, HEK293 cells; assay type: cell-based, human
Protocol: The transcriptional reporter containing […] and 9B8 opt-P was used in the bulk transfection of HeLa cells
HEK293, NIH3T3, or HeLa cells were plated to a single well of a 6-well tissue culture plate the day before transfection at a density of 4.5×10^5 cells/well in 3 mL complete medium (DMEM+10% FBS+1×NEAA+1× sodium pyruvate) for HEK293 cells, 3×10^5 cellsNvell in 3 mL complete medium (DMEM+10% fetal calf serum (FCS)+1×NEAA+1× sodium pyruvate) for NIH3T3 cells, or 9.9×10^5 cells/well in 3 mL complete medium (DMEM+10% FBS+1×NEAA) for HeLa cells. Cells were grown overnight at 37° C.
3,300 ng of reporter plasmid DNA in 155 4 OPTI-MEM® was mixed with 9.9 μL FUGENE® HD transfection reagent, vortexed briefly, and incubated at room temperature for 10 min. The CRE transcriptional reporters were used to transfect HEK293 and NIH3T3 cells. The HRE transcriptional reporters were used to transfect HeLa cells. The reporter mixture was added to cells and mixed by gentle rocking followed by incubation at 37° C. for 6 hrs (HEK293 and NIH3T3) or 3 hrs (HeLa). Cells were then trypsinized and resuspended in medium (DMEM+10% FBS+1×NEAA+1× sodium pyruvate for HEK293 cells, DMEM+10% FCS+1×NEAA+1× sodium pyruvate for NIH3T3 cells, or DMEM+10% FBS+1×NEAA for HeLa cells), followed by plating to the individual wells of a 96-well plate (20,000 cells/100 μL for HEK293, 10,000 cells/100 4 for NIH3T3, or […] for HeLa) and incubated at 37° C. overnight.
FSK (CRE stimulator) or 17-AAG (HRE stimulator; 17-Allylamino-demethoxy geldanamycin) in OPTI-MEM® was added to the cells (10 nM or 10 μM final concentration for FSK; 1 nM or 1 μM final concentration for 17-AAG) and incubated at 37° C. for 4 hrs (FSK) or 6 hrs (17-AAG). Plates were removed from the incubator and allowed to equilibrate to room temperature for 25 min. Cells were lysed with 100 μL lytic reagent as described above for the forward transfection. Luminescence was measured on a GLOMAX® Luminometer.

HEK293 cells [5] = experiment: Brightness on a per mole basis in HEK293 cells (HT7 fusions); assay type: cell-based, human
[6] = assay type: physicochemical, E. coli; conditions: for ½ life: 50° C.
Protocol: Lysates of E. coli containing 15C1, 9B8, 9F6, 8A3 or IV and E. coli expressing hRL (SEQ ID NO: 30 and 31) were prepared from induced cultures as described previously. Lysate samples were diluted 1:1000 with a buffer containing 10 mM HEPES pH 7.5 with 0.1% gelatin. Diluted lysate (100 μL) samples, in replicate 96-well plates, were incubated at 50° C. At different time points, plates were placed at −70° C. (minus seventy degrees Celsius). Prior to measuring the luminescence as described previously, each plate was thawed at room temperature, i.e., 22° C., for 10 min. Samples (10 μL of each thawed sample) were assayed using native coelenterazine as a substrate. Luminescence was measured immediately after addition of assay buffer for each time point plate. The half-life of the protein, which indicated protein stability, was calculated from the luminescence data for each time point using methods known in the art.

HEK293 cells [7] = experiment: Stability of 9B8 and V2 in HEK293 cells; assay type: cell-based, human; conditions: HEK293 cells lysed in assay reagent, 20 μM PBI-3939
Protocol: The variants 9B8 and V2 (9B8+K33N+T39T+K43R+Y68D) were also screened in HEK293 cells to determine their stability. The variants were cloned into pF4Ag and transfected into HEK293 cells (15,000 cells/well) as previously described. After transfection, the cells were lysed in assay reagent (as previously described; no PBI-3939), and luminescence measured using the assay reagent with 20 μM PBI-3939. […] This is consistent with the half-life seen for these variants in E. coli (Table 26).

B1: L27V: 9B8 opt+K33N variant with L27V, T39T, K43R, Y68D (protein)
chain: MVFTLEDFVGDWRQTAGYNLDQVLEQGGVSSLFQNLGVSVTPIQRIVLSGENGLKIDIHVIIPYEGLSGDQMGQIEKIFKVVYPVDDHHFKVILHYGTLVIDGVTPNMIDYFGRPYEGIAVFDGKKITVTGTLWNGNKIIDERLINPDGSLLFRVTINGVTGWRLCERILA
- (−) caspase (caspase-3 [1]): 803
- (+) caspase (caspase-3 [2]): 11,532
- Km [3]: 16 µM

B2: 9B8 opt: codon optimized version of the 9B8 variant (protein)
chain: B1 chain with V29L, N35K, R45K, D70Y
- induced luminescence higher than Luc2 transcriptional reporter [4]: approximately 1.5 logs
- induced luminescence higher than induced Renilla transcriptional reporter [4]: approximately 2.5 logs
- fold-induction ([4]; 30 ng of DNA): 360
- fold-induction ([4]; 100 ng of DNA): 109
- baseline (CRE; HEK293, 10 nM FSK, 4 h): 39,700,000
- RLU (10 mM FSK) (CRE; HEK293, 4 h): 654,000,000 RLU
- Response (CRE; HEK293, FSK): 16

B3: 9B8: IV variant with Q18L, F68Y, L72Q, M75K; in Tables 12, 22, 23, 26, 27 “9B8” stands for 9B8 opt (protein)
chain: B1 chain with V29L, N35K, R45K, D70Y
- brightness relative to Luc2 (HEK293 cells [5]): approximately 15 fold
- brightness relative to hRL (HEK293 cells [5]): > 100 fold
- ½ life [6]: 5.8 h
- ½ life ([6]; native coelenterazine as substrate): 5.777 h
- % remaining at t = 4 hrs ([6]; 4 h): 61%
- half-life (HEK293 cells [7]): 5.2 h
